{"source": "patent US20230405133A1", "about": "“PURIFIED MULTIVALENT PROTEIN-HYALURONIC ACID POLYMER CONJUGATES” (Valitor, Inc., priority 2022, published 2023)", "molecules": {"B1": {"name": "Conjugate 16 (anti-VEGF VHH SEQ ID NO: 91 with aH linker SEQ ID NO: 21 on hyaluronic acid, intermediate 2-6) (VHH)", "VHH": "DVQLVESGGGLVQPGGSLRLSCAASGRTFSSYSMGWFRQAPGKEREFVVAISKGGYKYDAVSLEGRFTISRDNAKNTVYLQINSLRPEDTAVYYCASSRAYGSSRLRLADTYEYWGQGTLVTVSS", "modifications": "C-terminal Cys of the peptide linker bound by its thiol to the maleimide of the organic linker MP2H on hyaluronic acid (830 kDa)", "notes": "Multivalent peptide-hyaluronic acid conjugate (MVP); peptide valency 101; Method 2 intermediate; also called BI VHH anti-VEGF MVP"}, "B2": {"name": "Conjugate 8 (anti-VEGF E1-1 SEQ ID NO: 81 with aH linker SEQ ID NO: 21 on hyaluronic acid, intermediate 5-7) (VHH)", "VHH": "EVQLQASGGGFVQPGGSLRLSCAASGGGSDAGTMGWFRQAPGKEREFVSAISWAGTAWRYYADSVKGRFTISRDNSKNTVYLQMNSLRAEDTATYYCALGSYEMDHHYWGQGTQVTVSS", "modifications": "C-terminal Cys of the peptide linker bound by its thiol to the maleimide of the organic linker MP2H on hyaluronic acid (830 kDa)", "notes": "Multivalent peptide-hyaluronic acid conjugate (MVP); peptide valency 94; Method 5 intermediate; also called anti-VEGF E1-1 MVP (Method 5)"}, "B3": {"name": "Conjugate 11 (anti-VEGF E1-1 SEQ ID NO: 81 with aH linker SEQ ID NO: 21 on hyaluronic acid, intermediate 5-2) (VHH)", "VHH": "B2 VHH", "modifications": "C-terminal Cys of the peptide linker bound by its thiol to the maleimide of the organic linker MP2H on hyaluronic acid (830 kDa)", "notes": "Multivalent peptide-hyaluronic acid conjugate (MVP); peptide valency 47; Method 5 intermediate"}, "B4": {"name": "aTNFaMu_3MUT: anti-TNFα single domain antibody (mouse), aTNFaMu with three point mutations, SEQ ID NO: 72 (protein)", "VHH": "QVQLQESGGGLVQAGGSLRLSCAASGGTFSSIIMAWFRQAPGKEREFVGAVSWSGGTTVYADSVKGRFTISRDSARKSVYLQMNSLKPEDTAVYYCAARPYQKYNWASASYNVWGQGTQVTVSS", "modifications": "aTNF-a mu 3MUT"}, "B5": {"name": "Conjugate 1: HA conjugate of anti-VEGF DARPin peptide SEQ ID NO: 92, made from Method 5 intermediate 5-4 (MP2H) (conjugate)", "chain": "GSDLDKKLLEAARAGQDDEVRILMANGADVNARDSTGWTPLHLAAPWGHPEIVEVLLKNGADVNAADFQGWTPLHLAAAVGHLEIVEVLLKYGADVNAQDKFGKTAFDISIDNGNEDLAEILQKAAGGGSGGGS", "modifications": "hyaluronic acid conjugate; anti-VEGF DARPIN"}}, "key": {"Human VEGF 165 [1]": {"molecular_target": "T1, Human VEGF 165 (human, UniProt P15692-4 27-191)", "T1 construct": "Loaded on the BLI probe as the ligand; also called BLI ligand Human VEGF 165 (Avi tag, R&D Systems AVI-293-050); not shown: Avi tag", "test": "BLI, VEGF 165 on probe, t = 0 (repeats Table 15); limit of detection"}, "Human VEGF 165 [2]": {"molecular_target": "T1, Human VEGF 165", "test": "BLI; KD after 11 days at 37 °C against KD at t = 0"}, "Human VEGF 165 [3]": {"molecular_target": "T1, Human VEGF 165", "test": "BLI, VEGF 165 on probe; sample aged 11 days at 37 °C"}, "Human VEGF 165 [4]": {"molecular_target": "T1, Human VEGF 165", "test": "BLI, VEGF 165 on probe, conjugate as analyte, t = 0; value is the limit of detection"}, "Human VEGF 165 [5]": {"molecular_target": "T1, Human VEGF 165", "test": "BLI; KD after 4 days at 37 °C against KD at t = 0"}, "Human VEGF 165 [6]": {"molecular_target": "T1, Human VEGF 165", "test": "BLI, VEGF 165 on probe; sample aged 4 days at 37 °C"}, "Human VEGF 165 [7]": {"molecular_target": "T1, Human VEGF 165", "test": "BLI, VEGF 165 on probe, conjugate as analyte, t = 0; t = 0, fresh conjugate, not aged"}, "Human VEGF 165 [8]": {"molecular_target": "T1, Human VEGF 165", "test": "BLI, VEGF 165 on probe; sample aged 3 days at 37 °C; aged 3 days at 37 C (sample 1)"}, "Human VEGF 165 [9]": {"molecular_target": "T1, Human VEGF 165", "test": "BLI; KD after 3 days at 37 °C against KD at t = 0; fold change of KD, 3 days at 37 C against t = 0"}, "Human VEGF 165 [10]": {"molecular_target": "T1, Human VEGF 165", "test": "BLI, VEGF 165 on probe; sample aged 5 days at 37 °C"}, "Human VEGF 165 [11]": {"molecular_target": "T1, Human VEGF 165", "test": "BLI; KD after 3 days at 37 °C against KD at t = 0"}, "Human VEGF 165 [12]": {"molecular_target": "T1, Human VEGF 165", "test": "BLI, VEGF 165 on probe; sample aged 3 days at 37 °C"}, "Human VEGF 165 [13]": {"molecular_target": "T1, Human VEGF 165", "test": "BLI; KD after 5 days at 37 °C against KD at t = 0"}, "Human VEGF 165 [14]": {"molecular_target": "T1, Human VEGF 165", "test": "BLI, VEGF 165 on probe, t = 0 (repeats Table 15)"}, "Human VEGF 165 [15]": {"molecular_target": "T1, Human VEGF 165", "test": "BLI, VEGF 165 on probe, conjugate as analyte, t = 0"}, "[16]": {"type": "physicochemical", "procedure": "25× volumes of lysis buffer 25 mM HEPES, 20 mM imidazole, 400 mM sodium chloride, 0.5 mM EDTA, 5% glycerol, 0.01% Tween 20, pH 7.5 were added to E. coli pellets harvested from 25 mL TB culture, and sonicated 5× on ice at 40% output using a probe sonicator. Once lysed, whole cell extracts were clarified at 10K*g and 100 uL of supernatant were aliquoted and subjected to incubations at 50° C., 60° C., 70° C., and 80° C. for 15 minutes, followed by a ten-minute incubation on ice. Thermally precipitated proteins were removed at 10K*g for five minutes, and soluble extract fractions were combined directly with Laemmli sample buffer, denatured, and run on 4-20% SDS-PAGE to evaluate yield and stability."}, "Human VEGF 165 [17]": {"molecular_target": "T2, Human VEGF 165 (Homo sapiens, UniProt P15692)", "T2 construct": "Avi; purchased R&D Systems AVI-293-050", "T2 sequence (P15692 27-191 isoform P15692-4)": "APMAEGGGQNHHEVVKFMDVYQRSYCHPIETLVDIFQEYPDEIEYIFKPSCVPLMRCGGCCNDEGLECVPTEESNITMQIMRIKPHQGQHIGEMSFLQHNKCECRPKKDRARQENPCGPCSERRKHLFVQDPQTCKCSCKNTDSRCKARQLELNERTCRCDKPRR", "test": "Accelerated 37° C. stability study, VEGF binding by BLI over time", "conditions": "DARPin MVPs, aging 28 and 32 days at 37° C., compared with Conjugate 2", "procedure": "MVP stability was assessed by setting up a long term accelerated […] stability by maintaining the MVPs at 37° C. at 5-10X the therapeutic concentration in pH 7.3 vitreous mimetic buffer (Table 19) or pH 7.4 PBS 0.01% tween 20. MVP stability was assessed using SEC MALS or SEC, DLS, and/or BLI analysis of samples removed after various times.\nLong-term 37° C. stability studies were set up to assess composition impact on MVP stability. MVPs were synthesized under sterile conditions and diluted to around 0.4 mg/mL in a sterile filtered human vitreous mimetic buffer. This concentration is 5X higher than intravitreal therapeutic concentration of our predicted clinical dose. […] At discrete timepoints, one aliquot from each sample was removed from the plate under sterile conditions and analyzed. […] Then, the protein concentration is measured to adjust for any differences in volume that may have occurred. The binding affinity to is measured using BLI. […] To monitor changes in radius over time, the samples are spun for 5 minutes at 5000 g to remove any large aggregates or dust particles and the Rh is measured using DLS without any sample dilution.\nThe change in binding affinity over time using biolayer interferometry (BLI) was also determined. […] Analytes were prepared at the top concentration determined in pilot reactions in BLI buffer and serially diluted 1:3 two to five more times using BLI buffer. […]"}, "[18]": {"test": "SEC analysis of MVP stability samples aged at 37° C.", "type": "physicochemical", "conditions": "anti-VEGF DARPin MVPs stored up to 71 days at 37° C., compared with Conjugate 2", "procedure": "Stability study samples were analyzed using HPLC size exclusion chromatography (SEC). This method was also used to analyze MVP formation and percent unreacted protein after purification. To assess stability via SEC, MVP was filtered to remove particles and analyzed using a Shodex 1 MDa Ohpak LB-804, Shodex KW-404 or 405, or Phenomenex PolySep6000 column with DPBS or appropriate solvent as the mobile phase to get baseline trace at 280 nm, 230 nm, etc. After various time points samples were removed and analyzed using the same SEC method. Increases in retention time and peak width relative to the baseline sample indicated degradation. In addition, decreases in MVP peak area and/or increases in monomer and dimer protein species peak area also indicate MVP degradation. Percent conjugate loss was quantified by comparing peak area differences with time. In the future, the SEC stability analysis will be coupled with MALS to quantify molecular weight and valency changes of the conjugate with age at different temperatures. […]\nStability study samples were also analyzed by coupling SEC with MALS analysis for determination of MVP radius of gyration (Rg,z) and molecular weight at different time points after aging at 37° C. […] System-specific calibration numbers, normalization coefficients, delay volumes, and band broadening terms were determined for the system prior to analysis. […]"}}, "note": "Entries after “also recorded” stand apart in the source; their conditions may differ."}
{"molecule": "B1", "values": [{"measurement": "Kd", "setting": "Human VEGF 165 [1]", "result": "< 0.001", "unit": "nM"}, {"measurement": "Change in KD to t = 0", "setting": "Human VEGF 165 [2]", "result": 648, "unit": "fold"}, {"measurement": "Kd", "setting": "Human VEGF 165 [3]", "result": 0.648, "unit": "nM"}, {"measurement": "Kd", "setting": "Human VEGF 165 [4]", "result": "< 0.001", "unit": "nM"}, {"measurement": "Change in KD to t = 0", "setting": "Human VEGF 165 [5]", "result": 654, "unit": "fold"}, {"measurement": "Kd", "setting": "Human VEGF 165 [6]", "result": 0.654, "unit": "nM"}]}
{"molecule": "B2", "values": [{"measurement": "Kd", "setting": "Human VEGF 165 [7]", "result": 0.184, "unit": "nM"}, {"measurement": "Kd", "setting": "Human VEGF 165 [8]", "result": 0.557, "unit": "nM"}, {"measurement": "Change in KD to t = 0", "setting": "Human VEGF 165 [9]", "result": 3, "unit": "fold"}]}
{"molecule": "B3", "values": [{"measurement": "Kd", "setting": "Human VEGF 165 [10]", "result": 21.9, "unit": "nM"}, {"measurement": "Change in KD to t = 0", "setting": "Human VEGF 165 [11]", "result": 7, "unit": "fold"}, {"measurement": "Kd", "setting": "Human VEGF 165 [12]", "result": 6.75, "unit": "nM"}, {"measurement": "Change in KD to t = 0", "setting": "Human VEGF 165 [13]", "result": 21, "unit": "fold"}, {"measurement": "Kd", "setting": "Human VEGF 165 [14]", "result": 1.04, "unit": "nM"}, {"measurement": "Kd", "setting": "Human VEGF 165 [15]", "result": 1.04, "unit": "nM"}]}
{"molecule": "B4", "values": [{"measurement": "thermal stability of the protein in E. coli cell extracts", "setting": "[16]", "result": "about 70 °C"}]}
{"molecule": "B5", "values": [{"measurement": "association constant (Kon) initially and with aging", "setting": "Human VEGF 165 [17]", "result": "lower Kon and slower association initially and with aging"}, {"measurement": "SEC retention time / radius change with aging", "setting": "[18]", "result": "much larger increase in retention time and contraction of radius; also recorded: larger losses in radius with aging"}]}
